From patent US11542481B2, “Morphinan N-demethylase isolated from the methylobacterium thebainfresser and methods of use thereof” (priority 2017, dated 2023) come the findings set out here.

Data set [1] is described as follows: MND enzyme temperature optimum assay. It counts as biochemical. Particulars: 20 min assays at 20° C.-80° C., pH 8.0, 7.5 μM thebaine. The protocol: Enzyme assays with 100 μl purified MND enzyme (˜36 μg), 7.5 μM thebaine, and 30 mM potassium phosphate pH 8.0 in a total assay volume of 200 μl were performed in duplicate and allowed to incubate at the following temperatures for 20 minutes: 20° C., 25° C., 30° C., 40° C., 50° C., 60° C., 70° C. and 80° C. Assays with purified pET28a empty vector control were included at each temperature. Assays were quenched by the addition of 400 μl MeOH followed by rapid mixing for 30 s then subject to centrifugation (16,000×g, 30 min, RT). Samples were diluted further (total of 50 fold dilution) to achieve an analyte concentration of 0.15 μM prior to filtration (low protein binding 0.2 μm, 4 mm, PTFE; Millipore) and introduction into the QTRAP 6500 using Method 1.

Data set [2] is described as follows: MND enzyme stability assay. It counts as biochemical. Particulars: pre-incubated at 30° C. in assay buffer pH 7.0 up to 72 hours, then 20 min with thebaine. The protocol:
100 μl purified MND enzyme (˜36 μg) was incubated in 30 mM potassium phosphate buffer pH 7.0 at 30° C. for 72, 48, 24, 6, 3, and 1 hours prior to addition of 1500 pmol thebaine in a total volume of 200 μl. The assay was allowed to proceed for 20 minutes after substrate addition and was processed and analyzed as in section 23.0.

Data set [3] is classed as cell-based, E. coli. Particulars: BL21 Star (DE3) cells, toluene treated, 20 μM thebaine, overnight 30° C.
The nature of data set [4]: MND enzyme pH optimum assay. It counts as biochemical. Particulars: 20 min. The protocol: Enzyme assays with 100 μl purified MND enzyme (˜36 μg), 7.5 μM thebaine, and 60 mM buffer (citrate buffer pH 4 and pH 5, potassium phosphate buffer pH 6.0, pH 7.0, and pH 8.0, and glycine-NaOH buffer pH 9, pH 10, and pH 10.5) in a total assay volume of 200 μl were allowed to incubate at 30° for 20 minutes. Assays with no enzyme and a purified pET28a empty vector control in pH 8.0 were included. The remaining protocol was the same as for the temperature optimum above. A supplemental pH assay was run in the same manner as above to verify the low pH results using a glycine-HCL buffer for pH 2, 3, and 4 and citrate buffer for pH 4, 5, and 6.

The nature of data set [5]: Proteinase K treatment and cofactor addition, conversion of thebaine to northebaine. It counts as biochemical. To be noted: 1 hour Proteinase K digestion before 20 min assay, pH 7.0. The procedure:
The first of two assays performed included adding 1500 pmol FAD to the 200 MND enzyme assay including 100 μl purified MND (˜36 μg) and 1500 pmol thebaine in 30 mM potassium phosphate buffer pH 7.0 with and without a prior 1 hour digest (of MND enzyme) with Proteinase K. Controls included a no enzyme control, FAD addition to a no enzyme control, a pET28a empty vector control, a pET28a empty vector control with FAD, and a pET28a empty vector control digested with Proteinase K followed by FAD addition. Assays were allowed to incubate for 20 minutes and then processed as in section 23.0. A second set of assays was performed, in duplicate, to validate the results found in the previous assay in addition to testing more cofactors. This assay included the following conditions; MND enzyme, MND enzyme pre-digested with Proteinase K for 1 hour, MND enzyme digested with Proteinase K in the presence of 1% SDS and 10 mM EDTA, MND enzyme with 1% SDS and 10 mM EDTA (no Proteinase K pre-digestion), pET28a empty vector, pET28a empty vector pre-digested with Proteinase K for 1 hour, pET28a empty vector digested with Proteinase K in the presence of 1% SDS and 10 mM EDTA, MND enzyme with the addition of 1500 pmol FMN, pET28a empty vector with the addition of 1500 pmol FMN, MND enzyme with the addition of 1500 pmol PLP and pET28a empty vector with the addition of 1500 pmol PLP. Assays were allowed to proceed for 20 minutes prior to processing and quantitation as described in section 23.0.

Data set [6] can be described thus: MND solvent stability assays. It counts as biochemical. Particulars: for reduction in activity: pH 7.0, 30° C., 20 min. The protocol:
FIG. 27. […] Enzyme assays with 5% and 25% of DMSO, methanol, chloroform, tetrahydrofuran, toluene, heptane, and diethyl ether were performed in duplicate and contained 30 mM potassium phosphate buffer pH 7.0, 36 μg purified enzyme, and 1500 pmol of thebaine. Assays were allowed to proceed for 20 min at 30° C. and analyzed by LC-MS/MS using the QTRAP 6500.
Enzymes used in pharma manufacturing must withstand harsh conditions and tolerate solvents, especially if the substrate is insoluble in water (FIG. 27). MND activity was tested in the following solvents at 5% and 25% concentration: DMSO, methanol, chloroform, tetrahydrofuran, toluene, heptane, and diethyl ether.

B1: MND enzyme: morphinan N-demethylase identified from the Methylobacterium Thebainfresser, amino acid sequence SEQ ID NO: 2, His-tagged, expressed in E. coli (protein)
chain: MTEKTPKLGSEAANKLGLEADISRRDMVGGVLIGAGAALLASVAPGAINRALAEGPSRLPPVRGSGTGWRGIEIADDWQGPGGIGDYSKSNGNTGKVIRDAHAGIRNHEFEKRLATASDVNEKYDVIIVGAGISGLHSAYDLLRQRPNIKILMLDNHAIFGGEAKQNKMEVDGQALYGGQGPTLYSFVGDDLPSWKGNPALASIMELKTYPKEFGLPTETTWSDKKTDVKVPVDLWFSMASPSQTDIAYRWEGSGLVKNPLLNSFRDAPVSQKSKDAIALMLAVDNGAKRPVEPVGDVSTWVDNMTYAEFLKKVYGADDEAVQLVDQIDVVGTAGLGGDVFNASLAALGLNQYGGIELWNGGLQGLSLPTGNGGVGRSILRKFMPGAIKGGTSLTDTLFGDVNWDVLDHANNNVRIRLNSTVVGVQNNETPTGTKDATVFFLHDNRLYKAKGKAVIMGTPQQVNRNVCLNLPNHLSEAMGDFHHAPILVVNVALRNWKSMEKAGVSGLRWFGEYPGIGQIVRSMVIDGKEIMPCDPSKPAVMTFYIPMNQATRGMPRGEQAMTARHMLFNLTFADIELLIRDQLTRAFGSYGFDAKRDIAAIVANRWGHALVCAGPGFYTGLNGKPPVSKVITAGWDRVAFGHSDLSGRQAWTVAVNYARTAVANVFPKI
modifications: His tag; Methylobacterium Thebainfresser
For the molecule B1, in data set [1], the “temperature of highest northebaine accumulation” value came to 60 °C. The “ability to demethylate thebaine after pre-incubation (stability)” value in data set [2] is reported as “maintained its ability to demethylate thebaine”. Moreover, the “morphinan N-demethylase activity (northebaine production, in words)” value in data set [3] is “showed morphinan N-demethylase activity”. Moreover, the “northebaine production at pH 4 compared with pH 5-10.5” value in data set [4] (citrate buffer pH 4, 30° C., not observed in glycine-HCL buffer) was “nearly twice as much”. Moreover, in data set [4] (pH range of 5-10.5, 30° C.), the “difference in northebaine production within the pH range” value was “no significant difference”. For the same molecule, in data set [5], the “amount of northebaine produced after Proteinase K treatment of the enzyme” value was “increased”. Moreover, the “activity (in words)” value is recorded as “little to no reduction in activity” in data set [6] (5% DMSO); “little to no reduction in activity” in data set [6] (5% methanol); “little to no reduction in activity” in data set [6] (5% toluene); “completely abolished” in data set [6] (25% chloroform); “completely abolished” in data set [6] (25% tetrahydrofuran); “no reduction in activity” in data set [6] (heptane, outlier, heptane sat on top of the reaction). In addition, the reduction in activity in data set [6] (25% DMSO) is on record as 21%; in data set [6] (25% methanol), 43%; in data set [6] (25% toluene), 44%; in data set [6] (diethyl ether (25%)) it was 66%.
